Laboratory results taken from patent publication US20240166765A1 (ICONIC THERAPEUTICS, published 2024).
Where two headings read alike, the source gives them in different places.

Legend:
[1] = target: T1, human TF ECD-His6 (human, UniProt P13726 33-251); test: BLI (ForteBio Octet)
T1 construct: made in Expi293 cells; the entry holds the ECD with the C-terminal TG-His6; also called TF-His; hTF

[2] = target: T2, cynomolgus TF ECD-His6 (cynomolgus monkey (Macaca fascicularis)); test: BLI (ForteBio Octet)
T2 construct: made in Expi293 cells; also called TF-His; cTF
T2 chain: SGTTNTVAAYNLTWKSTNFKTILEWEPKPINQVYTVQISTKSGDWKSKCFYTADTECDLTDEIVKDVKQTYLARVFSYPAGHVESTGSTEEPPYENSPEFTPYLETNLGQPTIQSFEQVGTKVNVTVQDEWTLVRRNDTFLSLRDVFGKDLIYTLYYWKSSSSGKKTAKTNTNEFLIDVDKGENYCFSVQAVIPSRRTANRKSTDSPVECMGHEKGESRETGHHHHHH

[3] = target: rTF (rat TF) on HEK293 cells (rat, UniProt P42533 29-252); test: live cell staining of transfected HEK293, flow cytometry
Sequence of rTF (rat TF) on HEK293 cells (P42533 29-252): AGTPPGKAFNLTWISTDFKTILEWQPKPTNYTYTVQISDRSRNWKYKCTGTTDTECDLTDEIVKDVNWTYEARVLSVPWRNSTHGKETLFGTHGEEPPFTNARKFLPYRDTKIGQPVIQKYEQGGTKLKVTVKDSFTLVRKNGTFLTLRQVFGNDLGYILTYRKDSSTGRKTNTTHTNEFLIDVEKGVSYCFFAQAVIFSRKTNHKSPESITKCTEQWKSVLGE

[4] = target: T1, human TF ECD-His6; test: SPR (Biacore), antibody on chip, TF-His titrated
[5] = target: T2, cynomolgus TF ECD-His6; test: SPR (Biacore), antibody on chip, TF-His titrated
[6] = target: T3, human Tissue Factor on MDA-MB-231 cells (human, UniProt P13726 33-295); test: cell-based or functional assay
[7] = target: T3, human Tissue Factor on MDA-MB-231 cells; test: flow cytometry, MDA-MB-231 cells; binding of 20 nM FVII-Fc-Alexa488 (competitor) left at 83 nM Ab
[8] = target: T3, human Tissue Factor on MDA-MB-231 cells; test: cell-based or functional assay; remark: listed apart in the source
[9] = target: T4, pig TF-His (pig (Sus scrofa)); test: SPR (Biacore), antibody captured by anti-human IgG on CM5 chip, pig TF-His in solution, 1:1 model
T4 construct: also called pig TF ECD-His; pTF
T4 chain: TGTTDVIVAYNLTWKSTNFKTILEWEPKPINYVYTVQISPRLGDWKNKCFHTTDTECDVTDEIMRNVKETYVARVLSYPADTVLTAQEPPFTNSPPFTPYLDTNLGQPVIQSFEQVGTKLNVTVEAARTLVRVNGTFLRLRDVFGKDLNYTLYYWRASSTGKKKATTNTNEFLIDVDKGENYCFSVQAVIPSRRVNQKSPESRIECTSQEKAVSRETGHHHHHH

[10] = target: T5, relipidated TF (UniProt P13726 33-295, limits assumed); test: cell-based or functional assay
[11] = target: T5, relipidated TF; test: cell-based or functional assay; remark: listed apart in the source
[12] = target: T5, relipidated TF; test: cell-based or functional assay; remark: listed apart in the source
[13] = target: T5, relipidated TF; test: cell-based or functional assay; remark: listed apart in the source

B1: 29E (antibody, human IgG1, V domains shown)
VH: QVQLVESGGGVVQPGRSLRLSCAASGFTFRSYGMHWVRQAPGKGLEWVAVITYDGINKYYADSVEGRFTISRDNSKNTLYLQMNSLRAEDTAVYYCARDGVYYGVYDYWGQGTLVTVSS
VL: not shown
notes: human IgG1
[1]
  Kd: 2320 pM
[2]
  Kd: 15000 pM
[3]
  binding result: no binding (tested: 15 µg/ml (100 nM))
[4]
  Kd: 470 pM
[5]
  Kd: 5060 pM

B2: 25G (antibody, human IgG1, kappa, V domains shown)
VH: QVQLVQSGAEVKKPGASVKVSCKASGYTFRSYGISWVRQAPGQGLEWMGWVAPYNGNTNYAQKLQGRVTMTTDTSTSTAYMELRSLRSDDTAVYYCARDAGTYSPYGYGMDVWGQGTTVTVSS
VL: DIQMTQSPSTLSASVGDRVTITCRASQSISSWLAWYQQKPGKAPKLLIYKASSLESGVPSRFSGSGSGTEFTLTISSLQPDDFATYYCQQFQSLPPFTFGGGTKVEIKR
notes: Human anti-TF IgG1
[6]
  % FXa, 12.5 nM Ab: 99%
  % FXa, 25 nM Ab: 109%
  % FXa, 100 nM Ab: 116%
[7]
  % FVIIa: 93%
[8]
  % IL8, 2.56 nM Ab: 60%
  % IL8, 6.4 nM Ab: 22%
  % IL8, 16 nM Ab: 16%
  % IL8, 40 nM Ab: 10%
  % IL8, 100 nM Ab: 9%

B3: 25A3 (antibody, human IgG1, kappa, V domains shown)
VH: QVQLVQSGAEVKKPGASVKVSCKASGYTFDVYGISWVRQAPGQGLEWMGWIAPYSGNTNYAQKLQGRVTMTTDTSTSTAYMELRSLRSDDTAVYYCARDAGTYSPFGYGMDVWGQGTTVTVSS
VL: DIQMTQSPSTLSASVGDRVTITCQASQSINNWLAWYQQKPGKAPKLLIYKAYNLESGVPSRFSGSGSGTEFTLTISSLQPDDFATYYCQLFQSLPPFTFGGGTKVEIKR
notes: Human IgG1; also called antibody 25A3
[9]
  Kd: 5500 pM

B4: 39A (antibody, human IgG1, V domains shown)
VH: QVQLVQSGAEVKKPGSSVKVSCKASGGTFSSNAIGWVRQAPGQGLEWMGSIIPIIGFANYAQKFQGRVTITADESTSTAYMELSSLRSEDTAVYYCARDSGYYYGASSFGMDVWGQGTTVTVSS
VL: EIVMTQSPATLSVSPGERATLSCRASQSVSSNLAWYQQKPGQAPRLLIYGASTRATGIPARFSGSGSGTEFTLTISSLQSEDFAVYYCEQYNNLPLTFGGGTKVEIK
notes: human IgG1
[10]
  TGA without pre-incubation, 10 nM Ab: % ETP: 55%
  TGA without pre-incubation, 10 nM Ab: % Peak IIa: 20%
  TGA without pre-incubation, 10 nM Ab: ETP: 1330 nM·min
  TGA without pre-incubation, 10 nM Ab: Lag Time: 12.1 min
  TGA without pre-incubation, 10 nM Ab: Peak IIa: 82 nM
  TGA without pre-incubation, 10 nM Ab: ttPeak: 19.6 min
  TGA without pre-incubation, 50 nM Ab: % Peak IIa: 7%
  TGA without pre-incubation, 50 nM Ab: Lag Time: 30.5 min
  TGA without pre-incubation, 50 nM Ab: Peak IIa: 30 nM
  TGA without pre-incubation, 50 nM Ab: ttPeak: 40 min
  TGA without pre-incubation, 100 nM Ab: % Peak IIa: 6%
  TGA without pre-incubation, 100 nM Ab: Lag Time: 28.9 min
  TGA without pre-incubation, 100 nM Ab: Peak IIa: 26 nM
  TGA without pre-incubation, 100 nM Ab: ttPeak: 40.1 min
[11]
  decrease of peak IIa concentration, TGA with 10 min pre-incubation, 100 nM Ab: 93%
  decrease of peak IIa concentration, TGA without pre-incubation, 100 nM Ab: 91%
[12]
  TGA with 10 min pre-incubation, 10 nM Ab: % Peak IIa: 11%
  TGA with 10 min pre-incubation, 10 nM Ab: Lag Time: 20.9 min
  TGA with 10 min pre-incubation, 10 nM Ab: Peak IIa: 30 nM
  TGA with 10 min pre-incubation, 10 nM Ab: ttPeak: 30.8 min
  TGA with 10 min pre-incubation, 50 nM Ab: % Peak IIa: 8%
  TGA with 10 min pre-incubation, 50 nM Ab: Lag Time: 29 min
  TGA with 10 min pre-incubation, 50 nM Ab: Peak IIa: 21 nM
  TGA with 10 min pre-incubation, 50 nM Ab: ttPeak: 39.7 min
  TGA with 10 min pre-incubation, 100 nM Ab: % Peak IIa: 6%
  TGA with 10 min pre-incubation, 100 nM Ab: Lag Time: 32.1 min
  TGA with 10 min pre-incubation, 100 nM Ab: Peak IIa: 17 nM
  TGA with 10 min pre-incubation, 100 nM Ab: ttPeak: 43.2 min
[13]
  TGA without pre-incubation, 10 nM Ab: % ETP: 58%
  TGA without pre-incubation, 10 nM Ab: % Peak IIa: 24%
  TGA without pre-incubation, 10 nM Ab: ETP: 1330 nM·min
  TGA without pre-incubation, 10 nM Ab: Lag Time: 12.4 min
  TGA without pre-incubation, 10 nM Ab: Peak IIa: 84 nM
  TGA without pre-incubation, 10 nM Ab: ttPeak: 20.7 min
  TGA without pre-incubation, 50 nM Ab: % Peak IIa: 8%
  TGA without pre-incubation, 50 nM Ab: Lag Time: 33.1 min
  TGA without pre-incubation, 50 nM Ab: Peak IIa: 29 nM
  TGA without pre-incubation, 50 nM Ab: ttPeak: 43.2 min
  TGA without pre-incubation, 100 nM Ab: % Peak IIa: 6%
  TGA without pre-incubation, 100 nM Ab: Lag Time: 38.1 min
  TGA without pre-incubation, 100 nM Ab: Peak IIa: 22 nM
  TGA without pre-incubation, 100 nM Ab: ttPeak: 48.3 min
[1]
  Kd: 830 pM
[2]
  Kd: 570 pM
[3]
  binding result: no binding (tested: 15 µg/ml (100 nM))
[4]
  Kd: 90 pM
[5]
  Kd: 80 pM
